Source: US20180142007A1 (AXON NEUROSCIENCE, published 2018)

Tests used:
[1] = biological target: T1, misdisordered truncated tau 151-391/4R (human, UniProt P10636 468-708); test: binding ELISA, plate coated with Tau 151-391/4R
T1 construct: Recombinant, from clone tau40 in pET-17b, expressed in E. coli; numbered on the longest human tau isoform 2N4R (441 aa); An added start methionine is not mentioned; also called tauΔ(1-150;392-441)/4R; misdisordered tau II

[2] = biological target: T1, misdisordered truncated tau 151-391/4R; test: SPR Biacore T200, antibody captured by anti-IgG on CM5 chip, tau 151-391/4R as analyte, steady state analysis
Experimental: Antibody affinity determination was carried out by SPR analysis using a Biacore T200. Anti-human IgG (GE Healthcare, cat. no. BR-1008-39) or anti-murine IgG (GE Healthcare, cat. no. BR-1008-38) was covalently immobilized to a CM5 chip (Cat. no. BR-1005-30) to the point of saturation and in accordance with the manufacturer's instructions. […] Association time was set at 150 sec and disassociation time 300 sec. Tau concentrations were chosen empirically in order to obtain curvature during the association phase. The kinetics of binding/dissociation was initially analyzed according to the 1:1 interaction model using BIAcore T200 evaluation software package 2.0.

[3] = biological target: T1, misdisordered truncated tau 151-391/4R; test: cell-based or functional assay
tau peptide 282-311 = biological target: T2, tau peptide 282-311 (human); test: direct ELISA, tau peptide coated on plate
T2 construct: Synthetic peptide (EZBiolabs), numbered on tau 2N4R; also called peptide derived from MTBRII
T2 peptide: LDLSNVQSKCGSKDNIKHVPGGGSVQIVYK

T1 sequence (P10636 468-708): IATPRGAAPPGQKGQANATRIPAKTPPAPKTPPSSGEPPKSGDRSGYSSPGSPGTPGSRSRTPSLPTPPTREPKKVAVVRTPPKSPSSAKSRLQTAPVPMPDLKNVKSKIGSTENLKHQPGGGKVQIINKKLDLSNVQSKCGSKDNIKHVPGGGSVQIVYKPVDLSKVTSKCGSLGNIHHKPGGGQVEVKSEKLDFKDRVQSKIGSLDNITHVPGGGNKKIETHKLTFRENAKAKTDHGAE

B1: AX002, humanized DC8E8 RHB/RKA (isotype not stated where tested) (antibody)
VH: QVQLVQSGPEVKKPGSSVKVPCKASGYIFTDYVISWVKQAPGQGLEWIGEIFPRSGSTYYNEKFKGKATLTADKSTSTAYMELSSLRSEDTAVYFCARDYYGTSFAMDYWGQGTLVTVSS
light: DIVMTQSPLSLPVTPGEPASISCKSSQSLLNSRTRKNYLAWYLQKPGQSPQLLIYWASTRESGVPDRFTGSGSGTDFTLKISRVEAEDVGVYYCKQSFYLRTFGQGTKVEIKRTVAAPSVFIFPPSDEQLKSGTASVVCLLNNFYPREAKVQWKVDNALQSGNSQESVTEQDSKDSTYSLSSTLTLSKADYEKHKVYACEVTHQGLSSPVTKSFNRGEC
- binding result [1]: binds

B2: AX016, humanized DC8E8 RHD/RKB (isotype not stated where tested) (antibody)
VH: QVQLVQSGAEVKKPGSSVKVSCKASGYTFSDYVISWVRQAPGQGLEWMGEIFPRSGSTYYNEKFKGRVTITADKSTSTAYMELSSLRSEDTAVYYCARDYYGTSFAMDYWGQGTLVTVSS
light: DIVMSQSPLSLPVTPGEPASISCKSSQSLLNSRTRKNYLAWYLQKPGQSPQLLIYWASTRESGVPDRFTGSGSGTDFTLKISRVEAEDVGVYYCKQSFYLRTFGQGTKVEIKRTVAAPSVFIFPPSDEQLKSGTASVVCLLNNFYPREAKVQWKVDNALQSGNSQESVTEQDSKDSTYSLSSTLTLSKADYEKHKVYACEVTHQGLSSPVTKSFNRGEC
notes: also called AX016 (DB)
- Kd [2]: 9 nM

B3: mouse monoclonal antibody DC8E8 (antibody, mouse IgG1)
heavy: QVQLQQSGPELVKPGTSVKMPCKASGYIFTDYVISWVKQRTGQGLEWIGEIFPRSGSTYYNEKFKGKATLTADKSSNTAYMQLSSVTSEDSAVYFCARDYYGTSFAMDYWGQGTSVTVSSAKTTPPSVYPLAPGSAAQTNSMVTLGCLVKGYFPEPVTVTWNSGSLSSGVHTFPAVLQSDLYTLSSSVTVPSSTWPSQTVTCNVAHPASSTKVDKKIVPRDCGCKPCICTVPEVSSVFIFPPKPKDVLTITLTPKVTCVVVDISKDDPEVQFSWFVDDVEVHTAQTKPREEQINSTFRSVSELPIMHQDWLNGKEFKCRVNSAAFPAPIEKTISKTKGRPKAPQVYTIPPPKEQMAKDKVSLTCMITNFFPEDITVEWQWNGQPAENYKNTQPIMDTDGSYFVYSKLNVQKSNWEAGNTFTCSVLHEGLHNHHTEKSLSHSPGK
VL: DIVMSQSPSSLAVSAGEKVTMSCKSSQSLLNSRTRKNYLAWYQQKPGQSPKLLIYWASTRESGVPDRFTGSGSGTDFTLTISSVQAEDLAVYYCKQSFYLRTFGGGTKLDIK
notes: also called murine DC8E8; mouse DC8E8
- amount of fibrillized pathological tau forms (Thioflavin T fluorescence), antibody at 10 uM [3]: < 4.7%
- binding result (tau peptide 282-311): binds
- Kd [2]: ~10 nM

B4: chimeric DC8E8 (isotype not stated where tested) (antibody)
VH: QVQLQQSGPELVKPGTSVKMPCKASGYIFTDYVISWVKQRTGQGLEWIGEIFPRSGSTYYNEKFKGKATLTADKSSNTAYMQLSSVTSEDSAVYFCARDYYGTSFAMDYWGQGTSVTVSS
light: DIVMSQSPSSLAVSAGEKVTMSCKSSQSLLNSRTRKNYLAWYQQKPGQSPKLLIYWASTRESGVPDRFTGSGSGTDFTLTISSVQAEDLAVYYCKQSFYLRTFGGGTKLDIKRTVAAPSVFIFPPSDEQLKSGTASVVCLLNNFYPREAKVQWKVDNALQSGNSQESVTEQDSKDSTYSLSSTLTLSKADYEKHKVYACEVTHQGLSSPVTKSFNRGEC
notes: Whole chimeric antibody with human constant regions; also called chimeric antibody
- amount of fibrillized pathological tau forms (Thioflavin T fluorescence), antibody at 10 uM [3]: < 5.9%
- Kd [2]: ~10 nM
